A word on the Kd: it is the concentration at which binding is half-saturated. Usually koff stands for the first-order rate constant of dissociation. A word on the kon: it is the second-order rate constant of association.

This note sets out measurements from patent US20220010008A1.

Experiment [1] addresses recombinant human IL-5 protein (human) (UniProt P05113). The experiment is described as follows: FACS, biotin-IL-5 bound to CHOK1 hIL-5Ra/CSF2RB cells with Ab 0.0533 nM.
For experiment [2] the target is unchanged. Put plainly: SPR, human IL-5 immobilized on chip, 1:1 fit. (Surface plasmon resonance follows binding to a sensor surface in real time, without labels.)
Experiment [3] shares this target. The experiment is described as follows: FACS, biotin-IL-5 bound to CHOK1 hIL-5Ra/CSF2RB cells with Ab 33.3333 nM. Background: Flow cytometry measures light scatter and fluorescence of single cells or particles in a stream.
Experiment [4] shares this target. The experiment is described as follows: FACS, biotin-IL-5 bound to CHOK1 hIL-5Ra/CSF2RB cells with Ab 6.6667 nM.
For experiment [5] the target is unchanged. The experiment is described as follows: cell-based or functional assay.
For experiment [6] the target is unchanged. Put plainly: FACS, biotin-IL-5 bound to CHOK1 hIL-5Ra/CSF2RB cells with Ab 0.0004 nM.
For experiment [7] the target is unchanged. The experiment is described as follows: FACS, biotin-IL-5 bound to CHOK1 hIL-5Ra/CSF2RB cells with Ab 0.0021 nM.
The target is the same in experiment [8]. Put plainly: FACS, biotin-IL-5 bound to CHOK1 hIL-5Ra/CSF2RB cells with Ab 1.3333 nM.
Experiment [9] shares this target. The experiment is described as follows: FACS, biotin-IL-5 bound to CHOK1 hIL-5Ra/CSF2RB cells with Ab 0.0107 nM.
The target is the same in experiment [10]. Put plainly: FACS, biotin-IL-5 bound to CHOK1 hIL-5Ra/CSF2RB cells with Ab 0.2667 nM.
Experiment [11] deals with recombinant human IL-5 protein with His tag (human) (UniProt P05113). Put plainly: ELISA, biotin-human IL-5 on streptavidin; antibody 2.6667 nM.
Experiment [12] shares this target. The experiment is described as follows: ELISA, biotin-human IL-5 on streptavidin; antibody 0.0009 nM. On the technique in general: An ELISA detects its analyte on a solid surface through an enzyme-linked reagent.
Experiment [13] shares this target. The experiment is described as follows: ELISA, biotin-human IL-5 on streptavidin; antibody 0.1067 nM.
Experiment [14] shares this target. The experiment is described as follows: ELISA, biotin-human IL-5 on streptavidin; antibody 0.0002 nM.
The target is the same in experiment [15]. Put plainly: ELISA, biotin-human IL-5 on streptavidin; antibody 0.0043 nM.
For experiment [16] the target is unchanged. The experiment is described as follows: ELISA, biotin-human IL-5 on streptavidin; antibody 13.3333 nM.
For experiment [17] the target is unchanged. Put plainly: ELISA, biotin-human IL-5 on streptavidin; antibody 0.5333 nM.
For experiment [18] the target is unchanged. The experiment is described as follows: ELISA, biotin-human IL-5 on streptavidin; antibody 0.0213 nM.

Changes are numbered by the printed parent chain. Values joined by “and” are separate entries in the source; they are usually repeats but may differ in a detail not shown here. Equal entries are not always repeated.

B1: 151G3B11 (murine hybridoma lead antibody) (antibody, V domains shown)
VH: EVHLQQSGAELVKPGASVKLSCTASGFNIKDYYMHWVKQRTEQGLEWIGRIDPEDGETKYAPKFQGQATITADTSSNTANLQLSSLTSEDTAVYYCARYGNFPDYWGPGTTLTVSS
VL: QIVLTQSPALMSASPGEKVTMTCSASSSVSYMYWYQQKPRSSPKPWIYLTSKLASGVPARFSGSGSGTSYSLTISSMEAEDAATYYCQQWNSNPYTFGGGTKLEIK
In the case of B1, in [1], the Fluorescence intensity was found to be 84. Further, in experiment [2], the Kd was 0.0186 nM, the koff is 9.04e-06 s⁻¹ and the kon was determined as 486000 M⁻¹ s⁻¹. Also, the Fluorescence intensity in [3] came to 30. Also, the Fluorescence intensity in experiment [4] was 34. Further, in experiment [5], the RLU, CTLL-2 cell proliferation stimulated by IL-5, Ab conc. 0.000170667 nM is 58000 RLU and 54700 RLU; the RLU, CTLL-2 cell proliferation stimulated by IL-5, Ab conc. 0.000853333 nM is 56500 RLU and 56300 RLU; the RLU, CTLL-2 cell proliferation stimulated by IL-5, Ab conc. 0.004266667 nM is 53600 RLU and 50900 RLU; the RLU, CTLL-2 cell proliferation stimulated by IL-5, Ab conc. 0.02133333 nM was 39300 RLU and 38800 RLU. In [5], the RLU, CTLL-2 cell proliferation stimulated by IL-5, Ab conc. 0.1066667 nM is 14000 RLU and 12200 RLU; the RLU, CTLL-2 cell proliferation stimulated by IL-5, Ab conc. 0.5333334 nM was 12500 RLU and 11700 RLU; the RLU, CTLL-2 cell proliferation stimulated by IL-5, Ab conc. 2.666667 nM was 8720 RLU and 8840 RLU; the RLU, CTLL-2 cell proliferation stimulated by IL-5, Ab conc. 13.33333 nM was 7410 RLU and 6600 RLU. Besides, in [5], the RLU, CTLL-2 cell proliferation stimulated by IL-5, Ab conc. 66.66666 nM was 6500 RLU and 5240 RLU; the RLU, CTLL-2 cell proliferation stimulated by IL-5, Ab conc. 3.41333E-05 nM is 60600 RLU and 48600 RLU; the RLU, TF-1 cell proliferation stimulated by IL-5, Ab conc. 0.00001 nM was 104000 RLU and 105000 RLU; the RLU, TF-1 cell proliferation stimulated by IL-5, Ab conc. 0.00003 nM was 95400 RLU and 98300 RLU. In addition, in experiment [5], the RLU, TF-1 cell proliferation stimulated by IL-5, Ab conc. 0.00017 nM is 86500 RLU and 91300 RLU; the RLU, TF-1 cell proliferation stimulated by IL-5, Ab conc. 0.00085 nM is 72700 RLU and 70700 RLU; the RLU, TF-1 cell proliferation stimulated by IL-5, Ab conc. 0.00427 nM was 51100 RLU and 54700 RLU; the RLU, TF-1 cell proliferation stimulated by IL-5, Ab conc. 0.02133 nM was 49900 RLU and 47200 RLU. Further, in [5], the RLU, TF-1 cell proliferation stimulated by IL-5, Ab conc. 0.10667 nM turned out to be 40400 RLU; the RLU, TF-1 cell proliferation stimulated by IL-5, Ab conc. 0.53333 nM was 35100 RLU and 37700 RLU; the RLU, TF-1 cell proliferation stimulated by IL-5, Ab conc. 2.66667 nM was 37900 RLU and 34300 RLU; the RLU, TF-1 cell proliferation stimulated by IL-5, Ab conc. 13.33333 nM was 35300 RLU and 36600 RLU. The Fluorescence intensity in [6] was 93. Further, the Fluorescence intensity in experiment [7] was found to be 86. For the same molecule, the Fluorescence intensity in experiment [8] was 46. In addition, in experiment [9], the Fluorescence intensity worked out at 87. Further, the Fluorescence intensity in experiment [10] was determined as 69.

B2: 151G3B11 (murine hybridoma antibody) (antibody, V domains shown)
VH: B1 VH
VL: B1 VL
Consider B2, for which the OD450 nm in [11] is 4.07 and 3.8; in [12] it was 0.185 and 0.186; in [13], 3.5 and 3.4; in experiment [14], 0.103 and 0.094; in experiment [15] it was 0.625 and 0.609; in experiment [16], 4.07 and 4.04. The OD450 nm in experiment [17] is 4.03 and 3.75; in experiment [18], 2.02 and 2.11.

B3: 147D7H2 (murine hybridoma antibody) (antibody, V domains shown)
VH: EVQLQQSGAELVKPGASVKLSCTASGFNIKDYFIHWVKQRTEQGLEWIGRIDTEDGETKYAPKFQGKATITIDTSSNTAYLYFSSLTSEDTAMYYCARYGNYVAMDYWGQGTSVTVSS
VL: B1 VL with Y33F, R40S, M77V
B3: the OD450 nm was 3.09 and 3.2 in experiment [11]; 0.088 and 0.09 in experiment [12]; 1.42 and 1.47 in [13]; 0.073 and 0.074 in [14]; 0.158 and 0.159 in [15]; 3.21 and 3.52 in [16]. Further, the OD450 nm in experiment [17] is 2.76; in experiment [18] it was 0.438 and 0.475.

B4: 154F10G8 (murine hybridoma antibody) (antibody, V domains shown)
VH: QVQLQQPGAELVKPGASVKLSCKASGYTFTSYWITWVKQRPGQGLEWIGDIYPGSGSTFYNEKFKSEATLTVDTSSSTAYMQLSSLTSEDSAVFYCSTETTLGYWGQGTTLTVSS
VL: DVLMTQTPLSLPVSLGDQASISCRSSQSIVHNNGNTYLEWYLQKPGQSPKLLIYKVSNRFSGVPDRFSGSGSGTDFTLKISRVEAEDLGVYYCFQGSHVPFTFGSGTKLEIK
Consider B4, for which the OD450 nm was 3.23 and 3.17 in experiment [11]; 0.093 and 0.092 in experiment [12]; 1.69 and 1.71 in experiment [13]; 0.079 and 0.07 in [14]; 0.205 and 0.193 in experiment [15]; 3.3 and 3.49 in experiment [16]. For the same molecule, the OD450 nm in [17] was 2.76 and 2.69; in experiment [18] it was 0.595 and 0.64.
